This experiment deals with T1, human CSF3 protein (human, UniProt P09919 31-207).
T1 construct: also called G-CSF; human colony-stimulating factor 3
T1 sequence: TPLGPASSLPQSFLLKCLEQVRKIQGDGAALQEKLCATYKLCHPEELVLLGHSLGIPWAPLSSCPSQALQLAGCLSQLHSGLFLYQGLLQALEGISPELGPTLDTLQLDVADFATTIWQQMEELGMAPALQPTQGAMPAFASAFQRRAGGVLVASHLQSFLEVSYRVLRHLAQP
The experiment can be described thus: high-mass MALDI MS of a mixture of Y41 antibody and human CSF3 protein; complexes of one or two CSF3 with one Y41.

B1: C41 (or Y41) (antibody, human IgG1, kappa, V domains shown)
VH: EMQLVQSGAEARKPGSSVKVSCKASGYTFTNYGISWLRQTPGQGLEWMGWINPNSGGTIYAQKFQGRVTMTRDTPITTAYMELSTLRSEDTAVYYCSRGSGGAVPFDVWGQGTMVTVSS
VL: DIQMTQSPFSLSASVGDRVTITCRASQTISNRLNWYQHKPGKAPKLFIYYASSLQSGVPSRFSGSGSGTDFALTISSLQPEDFATYYCQQGYSSPRTFGQGTKVEIKR
notes: Human IgG1; the CDR numbers printed for Y41 disagree between places; also called 007A06; CSA1241
Turning to B1, the binding result is recorded as “binds”.

Source of the values: patent EP4803540A1 (FNCTBiotech Inc., dated 2026).
